# From patent US20120238038, “PEPTIDE BINDING TO METHYLATED DNA” (published 2012)
# B1: unmethylated target DNA (dsDNA)
# DNA 1: GGGGCGGGGCC
# DNA 2: GGCCCCGCCCC
# B2: methylated target DNA (dsDNA)
# DNA 1: GGGGCGGGGCC
# DNA 2: GGCCCCGCCCC
# modifications: 5mC at position 5 of G chain and position 6 of C chain
# Target: peptide F (two-zinc-finger peptide, X = phenylalanine) (Artificial Sequence)
# Experiment: EMSA; 100 uM ZnCl2, 100 mM NaCl, 4 C
# Conditions: protein: synthetic; tags: none; chemically synthesized (Fmoc SPPS), C-terminal amide; label: 5'-32P on G chain
# Description: These bands obtained on the gel were quantified using Image Gauge software (FUJIFILM Corporation, ver. 4.01). The ratio of DNA bound to the peptide ([bound]/[bound]+[free]) was calculated from the band intensity at each peptide concentration; using this and the concentration of the peptide, the dissociation constant between the peptide and the DNA was calculated from the calculation equation (2) below.
# Chain of peptide F (two-zinc-finger peptide, X = phenylalanine) (Artificial Sequence) (chain, as listed by the source): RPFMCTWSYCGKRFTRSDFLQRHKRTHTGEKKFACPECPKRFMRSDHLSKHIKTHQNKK
row,Binder,Kd [µM]
1,B1,2.1
2,B2,5.58
